This is an account of results in patent US20220143204A1 (LINXIS B V, published 2022).

Test [1] has as its target T1, human PDGFRB on LX-2 cells (human, UniProt P09619).
T1 construct: full-length receptor on the cell surface; The list has human PDGFRB only on SCC VII cells
Kind of test: binding assay on the human hepatic stellate cell line LX-2 (Example 4).

The target of test [2] is T2, human PDGFRB extracellular domain (human, UniProt P09619 33-532).
T2 construct: extracellular domain; also called hPDGFRB-ECD; human PDGFRB ectodomain
T2 sequence (P09619 33-532): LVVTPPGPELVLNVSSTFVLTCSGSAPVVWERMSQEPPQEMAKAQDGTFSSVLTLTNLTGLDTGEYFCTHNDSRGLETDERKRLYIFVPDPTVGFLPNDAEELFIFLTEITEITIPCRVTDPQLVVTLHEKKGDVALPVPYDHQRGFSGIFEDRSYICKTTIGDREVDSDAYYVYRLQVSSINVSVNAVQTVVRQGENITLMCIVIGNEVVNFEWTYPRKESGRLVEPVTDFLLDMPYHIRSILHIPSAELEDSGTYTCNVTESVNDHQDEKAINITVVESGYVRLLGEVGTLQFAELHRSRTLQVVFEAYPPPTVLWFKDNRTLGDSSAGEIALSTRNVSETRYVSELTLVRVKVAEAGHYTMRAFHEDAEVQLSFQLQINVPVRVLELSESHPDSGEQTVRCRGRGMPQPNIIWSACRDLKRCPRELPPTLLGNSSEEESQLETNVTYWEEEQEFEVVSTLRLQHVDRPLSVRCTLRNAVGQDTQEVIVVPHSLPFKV
Kind of test: binding assay on immobilised human PDGFRB ectodomain, apparent affinity (Example 4).

Test [3] deals with T3, human PDGFRB on SCC VII cells (human, UniProt P09619 33-1106).
T3 construct: whole, on cells; also called hPDGFRB; SCC-hPDGFRB
T3 sequence (P09619 33-1106): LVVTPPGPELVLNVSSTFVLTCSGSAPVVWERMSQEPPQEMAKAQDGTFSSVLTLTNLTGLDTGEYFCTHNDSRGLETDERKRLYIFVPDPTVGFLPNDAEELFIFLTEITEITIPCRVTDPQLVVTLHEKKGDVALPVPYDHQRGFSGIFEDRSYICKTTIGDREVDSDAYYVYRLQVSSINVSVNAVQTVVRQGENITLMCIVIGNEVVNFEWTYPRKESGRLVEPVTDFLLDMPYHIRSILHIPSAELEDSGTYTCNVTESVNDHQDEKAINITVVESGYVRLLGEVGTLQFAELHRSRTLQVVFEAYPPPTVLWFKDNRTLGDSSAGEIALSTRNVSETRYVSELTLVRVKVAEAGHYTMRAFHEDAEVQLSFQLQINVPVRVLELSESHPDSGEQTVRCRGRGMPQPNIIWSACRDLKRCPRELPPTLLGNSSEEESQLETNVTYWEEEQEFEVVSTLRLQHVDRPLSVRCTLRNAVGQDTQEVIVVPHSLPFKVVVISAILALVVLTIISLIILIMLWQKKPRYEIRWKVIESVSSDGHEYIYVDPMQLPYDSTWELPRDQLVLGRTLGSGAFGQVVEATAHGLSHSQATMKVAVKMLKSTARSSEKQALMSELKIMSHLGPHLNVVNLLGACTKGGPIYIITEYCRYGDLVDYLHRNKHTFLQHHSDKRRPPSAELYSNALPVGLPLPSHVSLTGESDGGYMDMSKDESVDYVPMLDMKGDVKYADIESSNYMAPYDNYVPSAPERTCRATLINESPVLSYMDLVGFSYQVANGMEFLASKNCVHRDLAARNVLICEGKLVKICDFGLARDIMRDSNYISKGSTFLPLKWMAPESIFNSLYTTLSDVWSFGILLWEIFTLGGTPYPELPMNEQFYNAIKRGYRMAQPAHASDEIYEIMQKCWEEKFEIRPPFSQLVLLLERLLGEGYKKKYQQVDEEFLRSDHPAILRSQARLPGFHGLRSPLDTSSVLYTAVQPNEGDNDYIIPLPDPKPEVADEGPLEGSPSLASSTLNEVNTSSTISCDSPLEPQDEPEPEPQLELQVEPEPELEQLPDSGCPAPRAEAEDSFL
Briefly: binding assay on SCC VII cells transfected with human PDGFRB (Example 4).

The target of test [4] is T4, rat PDGFRB extracellular domain (rat, UniProt Q05030 32-531).
T4 construct: extracellular domain; also called rPDGFRB-ECD; rat PDGFRB ectodomain
T4 sequence (looked up): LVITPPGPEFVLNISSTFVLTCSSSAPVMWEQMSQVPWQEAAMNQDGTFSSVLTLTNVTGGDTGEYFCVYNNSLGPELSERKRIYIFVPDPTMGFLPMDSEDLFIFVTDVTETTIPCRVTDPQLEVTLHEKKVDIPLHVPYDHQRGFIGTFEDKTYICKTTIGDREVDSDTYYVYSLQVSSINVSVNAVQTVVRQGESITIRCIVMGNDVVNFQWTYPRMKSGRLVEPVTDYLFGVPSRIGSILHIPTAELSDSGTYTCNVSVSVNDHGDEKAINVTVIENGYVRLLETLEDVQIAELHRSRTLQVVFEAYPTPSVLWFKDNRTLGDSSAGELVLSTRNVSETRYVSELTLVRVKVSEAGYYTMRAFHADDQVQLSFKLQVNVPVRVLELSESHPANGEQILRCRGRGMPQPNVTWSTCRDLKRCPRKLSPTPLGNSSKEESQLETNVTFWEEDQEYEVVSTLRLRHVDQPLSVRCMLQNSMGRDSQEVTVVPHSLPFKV
Kind of test: binding assay on immobilised rat PDGFRB ectodomain, apparent affinity (Example 4).

Test [5] deals with T5, rat PDGFRB on SCC VII cells (rat, UniProt Q05030 32-1097).
T5 construct: whole, on cells; also called rPDGFRB; SCC-rPDGFRB
Kind of test: binding assay on SCC VII cells transfected with rat PDGFRB (Example 4).

T1 sequence (P09619 33-1106 limits assumed): as the sequence (P09619 33-1106) above

B1: SP14P (VHH)
VHH: EVQLVESGGGLVQAGDSLRLSCVVSGLTFSRYGMGWFRQATGKEREFVGGISVGSSGTMYPNSVKGRFTISRDNAKSTVYLQMNSLKPEDTAVYFCAAIDQGSFVQQRDYRYWGQGTQVTVSS
notes: Llama VHH; on phage in the phage ELISA
In the case of B1, the Kd stood at 3.1 nM in test [1], 8.6 nM in test [2] and 0.6 nM in test [3].

B2: SP35P (VHH)
VHH: EVQLVESGGGLVQPGGSLRLSCAASGSLGSNNPMAWYRQAPGKERELVASISSAYRTHYADFVKGRFTISRDSPKNTVSLQMNNLKPEDTAVYYCGIFVSARNYWGKGTQVTVSS
notes: as for B1
Turning to B2, the binding result in test [4] is reported as “binds”.

B3: SP11P (VHH)
VHH: EVQLVESGGGLVQAGDSLRLSCAASGRTFSSYPIAWFRQAPGKEREFVAAITSSGLTTYYANVVKGRFAISRDNAKDTVYLQMNSLKPEDTAVHYCATSNGFLSGRDIYQHNKYIYWGQGTQVTVSS
notes: as for B1
On to B3, for which, in test [2], the binding result is “binds”.

B4: SP05P (VHH)
VHH: EVQLVESGGGLVQAGGSLRLSCAASGRTSFSGYAMAWFRQAPGKERDFVASITWSYGYTYYTDSAQGRFTISRDSAKNTVYLEMNSLKPEDTAVYYCAADPKASRFRILREYAYWGQGTQVTVSS
notes: as for B1
Consider B4, for which the Kd in test [1] was determined as 193 nM; in test [2] it was 9.2 nM; in test [3], 1.4 nM.

B5: SP13P (VHH)
VHH: EVQLVESGGGLVQPGGSLRLSCAASESIFSINYMAWYRQAPGKQRELVAFSIDGSSTNYVDSVRGRFTASRDNAENTLYLQMNSLKPEDTAVYYCYAQGNTWAAGVWGQGTQVTVSS
notes: as for B1
Regarding B5, the Kd in test [2] turned out to be 9.3 nM; in test [3], 10.4 nM.

B6: SP10P (VHH)
VHH: EVQLVESGGGLVQAGGSLRLSCAASGRTFNGYAMGWFRQAPGKERDFVAAITWSYGYTHYAESVKGRFSISRDSANNMVYLEMNSLKPEDTAVYYCAADPKASRFRTLRRYDYWGQGTQVTVSS
notes: as for B1
On to B6, for which the Kd in test [3] was found to be 0.9 nM.

B7: SP08P (VHH)
VHH: EVQLVESGGGLVQAGGSLRLSCAASGRTFNGYAMAWFRQAPGKERDFVASITWSYGYTYYADSAQGRFTISRDSAKNTVYLEMNSLKPEDTAVYYCAADPKASRFRILRQYAHWGQGTQVTVSS
notes: as for B1
Regarding B7, the Kd in test [1] came out at 60.2 nM; in test [3], 0.5 nM.

B8: SP36P (VHH)
VHH: EVQLVESGGGLVQAGGSLRLSCTPSITTAGTTIMAWFRQAPGNEREFVAAIWGSKTAYGDSMKGRLTISRDNVRDNGQKTVFLQMNNLQLQDTATYYCAASSGGYVHSSTSYEIWGRGTQVTVSS
notes: as for B1
Take B8: the Kd stood at 76.6 nM in test [5] and 31 nM in test [4].

B9: SP15P (VHH)
VHH: EVQLVESGGGLVQAGGSLRLSCAASGRAFGGPYMAWFRQTPGKGREFVAAISPSSVYTFYQDSVKGRFTISRDNTKNTAYLQMNSLKPEDTAVYYCAAEAAGEVRLETSYKYWGQGTQVTVSS
notes: as for B1
With B9, the binding result in test [2] is “binds”.

B10: SP07P (VHH)
VHH: EVQLVESGGGSVQTGGSLRLSCAASGRSFSTYAMAWFRQAPGKEREFVAAINRRATDTVYADSAKGRFIISRDNDKNTVYLQMDSLKTEDTAVYYCAAAKNAYDWRWDRLRDRDYWGQRGQGTQVTVSS
notes: as for B1
As for B10, the Kd was 10.1 nM in test [2] and 62.3 nM in test [3].

B11: SP29P (VHH)
VHH: EVQLVESGGGLVQAGDSLRLSCTVSGRTFNTYVTGWFRQAPGKEREFVAAIHQIGSTYYRNSVKGRFTISRDGAKDTVYLQMNNLKPEDSAVYYCAAGNGGYVMSDIAYGTWGQGTQVTVSS
notes: as for B1
For B11, the binding result in test [4] is reported as “binds”.

B12: SP17P (VHH)
VHH: EVQLVESGGGLVQPGGSLRLSCAASGLTFVNYAMGWFRQAPGKERELVAGIASSGRIYYADSVAGRFTISRDNARNTVNLQMNSMKPEDTAVYYCAGRRSFSSTSAADYNYWGQGTQVTVSS
notes: as for B1
In the case of B12, the binding result in test [2] was “binds”.

B13: SP21P (VHH)
VHH: EVQLVESGGGLVQPGGSLRLSCVVSGSSFSSYTMGWFRRAPGKQRELVAGVSTVGDTAAADSVKGRFTISRDNAKNTVYLQMNSLKPEDTAVYYCNTYPHAYLEWGQGTQVTVSS
notes: as for B1
Consider B13, for which the binding result in test [2] is listed as “binds”.

B14: SP32P (VHH)
VHH: EVQLVESGGGTVQAGDSLRLSCTASGRTFSTYTMGWFRQAPGKERVVVAVNTWNNFTVHQPSVKGRFTMSRDNTKNSIYLQMDSLKPEDTAVYYCAASAKGTARYDYWGQGTQVTVSS
notes: as for B1
On to B14, for which the binding result in test [4] is given as “binds”.

B15: SP23P (VHH)
VHH: EVQLVESGGELVQAGGSLRLSCAVSGRTLTSYPMGWFRQAPGKEREFVAAISWSGGDTMYADSVKGRFTISRDNSKNTVYLQMNSLKPEDTADYYCARRRYSSGISRHLVDYEYWGQGTQVTVSS
notes: as for B1
For B15, the binding result in test [2] is recorded as “binds”.

B16: SP12P (VHH)
VHH: EVQLVESGGGLVQAGGSLRLSCVISGRTSPTYPMGWFRQSPGNEREFVASINWSGGWRNYADSVKGRFTISRDDAKNTVYLQMNSLKPEDTAVYYCARGQYSSGTPVYAHEYAYWGQGTQVTVSS
notes: as for B1
Turning to B16, the Kd in test [1] is 0.6 nM; in test [3], 0.3 nM.

B17: SP20P (VHH)
VHH: EVQLVESGGGLVQAGGSLRLSCVISGRTSPTYPMGWFRQSPGNEREFVASINWSGGWRNYADSVKDRFTISRDDAKNTVYLQMNSLKPEDTAVYYCARGQYSSGTPVYAHEYAYWGQGTQVTVSS
notes: as for B1
Take B17: the Kd was 53.6 nM in test [1], 3.8 nM in test [2] and 1 nM in test [3].

B18: SP31P (VHH)
VHH: EVQLVESGGGLVQAGGSLRLSCAASRGTFGTYIMGWFRQAPGKEREFVAAISWRGANTYYGYSVKGRFTISRDNAKNTMYLQMADLKPEDTADYYCGVHLNGTPYYYASGYRYWGQGTQVTVSS
notes: as for B1
Consider B18, for which the Kd came out at 31.8 nM in test [5] and 276 nM in test [4].

B19: SP30P (VHH)
VHH: EVQLVESGGGLVQAGGSLRLSCAASRGTFGTDIMGWFRQAPGKEREFVAAISWRGANTYYGYSVKGRFTISRDNAKNTMYLQMADLKPEDTADYYCGVHLNGTPYYYASGYRYWGQGTQVTVSS
notes: as for B1
With B19, the Kd in test [4] worked out at 12.2 nM.

B20: SP01P (VHH)
VHH: EVQLVESGGGLAQAGGSLRLSCVASGNIDSANGMAWYRQAPGKQRELVAHITSGTSYYVASVEGRFTISRANAKDTWYLQMNSLKPEDTGVYYCFPIGLSAHWSQGTQVTVSS
notes: as for B1
Take B20: the Kd came out at 20.4 nM in test [2] and 7.8 nM in test [3].

B21: SP27P (VHH)
VHH: EVQLVESGGGLVQIGDSLRLSCAASGGTFNRYGMGWFRQAPGKEREFVAAIRWDGVDTNYADFVKGRFTISRYNAKNTAYLQMNSLKPEDTAVYYCAADRRGLYTKHAHRYDYWGQGTQVTVSS
notes: as for B1
Take B21: the Kd in test [4] came out at 25.5 nM.

B22: SP25P (VHH)
VHH: EVQLVESGGGLVQPGGSLRLSCAASESIFSINAMGWYRQTPGKQREMVASITPGGFTIYADSVKGRFTISRDNAKNTLYLQMNNLRFEDTAVYYCNAFAGSATSYHDFGSWGQGTQVTVSS
notes: as for B1
For B22, the binding result in test [4] was “binds”.
